Molecular target: T1, Hif-1α CAD (Homo sapiens, UniProt Q16665)
T1 chain: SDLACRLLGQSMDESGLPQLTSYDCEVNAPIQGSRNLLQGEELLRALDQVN
Assay: stopped-flow

- Kd: 3.4 nM
B1: CBP TAZ1 (protein)
chain: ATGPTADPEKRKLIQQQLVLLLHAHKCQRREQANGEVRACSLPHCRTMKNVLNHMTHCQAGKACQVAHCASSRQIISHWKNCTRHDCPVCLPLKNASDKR

— article PMC5959852 (2018)
